Experimental data as given in the supplement of paper PMC7877785.
± gives the uncertainty stated by the source.

Assay: self-splicing fitness, log relative to wild type (ln ratio); higher = more splicing; Tetrahymena group I intron in knt gene, E. coli kanamycin selection, DiMSum; sequences stand for … in CUCUCU…GGAGGGAAAAGUUAUCAGGCAUGCACCUGGUAGCUAGUCUUUAAACCAAUAGAUUGCAUCGGUUUAAAAGGCAAGACCGUCAAAUUGCGGGAAAGGGGUCAACAGCCGUUCAGUACCAAGUCUCAGGGGAAACUUUGAGAUGGCCUUGCAAAGGGUAUGGUAAUAAGCUGACGGACAUGGUCCUAACCACGCAGCCAAGUCCUAAGUCAACAGAUCUUCUGUUGAUAUGGAUGCAGUUCACAGACUAAAUGUCGGUCGGGGAAGAUGUAUUCUUCUCAUAAGAUAUAGUCGGACCUCUCCUUAAUGGGAGCUAGCGGAUGAAGUGAUGCAACACUGGAGCCGCUGGGAACUAAUUUGUAUGCGAAAGUAUAUUGAUUAGUUUUGGAGUACUCGUGGUCG
Outline: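 A randomised library covering all eight P1ex-region intron nucleotides was built with the intron in the knt kanamycin-resistance gene on pET-22b(+) and held in E. coli BL21(DE3). Cells were grown overnight at 37°C or 30°C on LB agar, with or without 25 μg/mL kanamycin, plus 100 μg/mL carbenicillin, 50 μM IPTG and 0.2% rhamnose, and pooled colonies were amplicon-sequenced on an Illumina HiSeq 2500. DiMSum fitness is the error-weighted combination of wild-type-normalised replicate fold changes, kanamycin versus none.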

Sequence	self-splicing fitness (ln) (30 °C)	self-splicing fitness (ln) (37 °C)
CCAAAGCAAUAUUACGCAUU	-3.34 ± 0.26	-3.55 ± 0.46
GUGAAGCAAUAUUACGCUGG	-1.42 ± 0.12	-0.76 ± 0.13
GAUUAGCAAUAUUACGCGCG	-1.03 ± 0.097	-0.745 ± 0.12
UUGUAGCAAUAUUACGAGCU	-1.88 ± 0.22	-0.4 ± 0.2
CCGGAGCAAUAUUACGCAGU	-3.74 ± 0.28	-2.13 ± 0.25
UCUAAGCAAUAUUACGCGCG	-1.87 ± 0.14	-1.74 ± 0.18
ACAGAGCAAUAUUACGCUCG	-1.05 ± 0.13	-1.12 ± 0.2
UUAAAGCAAUAUUACGUUUA	-0.747 ± 0.068	-0.409 ± 0.09
AGCCAGCAAUAUUACGUCUG	-4.62 ± 0.25	-1.94 ± 0.17
UAACAGCAAUAUUACGAUUA	-0.131 ± 0.047	-0.103 ± 0.058
CAGAAGCAAUAUUACGAAUG	-2.6 ± 0.14	-0.683 ± 0.13
UUACAGCAAUAUUACGCAAG	-1.73 ± 0.1	-0.345 ± 0.12
AACAAGCAAUAUUACGUGCU	-2.57 ± 0.16	-1.51 ± 0.14
GGUGAGCAAUAUUACGACCA	-1.21 ± 0.25	-0.616 ± 0.31
CAAAAGCAAUAUUACGUUCG	-0.43 ± 0.051	0.246 ± 0.066
UUAUAGCAAUAUUACGCACU	-1.15 ± 0.16	-0.214 ± 0.21
GGGUAGCAAUAUUACGAAAU	-1.8 ± 0.11	-0.914 ± 0.11
CAUAAGCAAUAUUACGAUAA	-4.17 ± 0.37	-1.45 ± 0.2
UAAAAGCAAUAUUACGUGUC	-3.12 ± 0.25	-2.5 ± 0.2
CUAGAGCAAUAUUACGUCCG	-0.472 ± 0.087	-0.0677 ± 0.14
UUGAAGCAAUAUUACGUGUU	-4.53 ± 0.21	-1.92 ± 0.14

Sequence	self-splicing fitness (ln) (30 °C)	self-splicing fitness (ln) (37 °C)
GUCGAGCAAUAUUACGGGCA	-2.65 ± 0.4	-0.9 ± 0.18
AGAAAGCAAUAUUACGGACG	-0.883 ± 0.085	-0.116 ± 0.13
CUAUAGCAAUAUUACGAUAC		-2.61 ± 0.33
GGGUAGCAAUAUUACGGCUG	-0.592 ± 0.11	-1.05 ± 0.14
UUGGAGCAAUAUUACGAGAU	-2.83 ± 0.29	-2.36 ± 0.36
ACCGAGCAAUAUUACGGCCA	-0.778 ± 0.13	-0.469 ± 0.14
UACCAGCAAUAUUACGUGCC	-3.35 ± 0.24	-0.584 ± 0.19
GCGUAGCAAUAUUACGUCUU	-3.15 ± 0.098	-1.93 ± 0.1
AUCGAGCAAUAUUACGGAAU	-3.47 ± 0.21	-1.79 ± 0.18
AUACAGCAAUAUUACGGUUU	-0.703 ± 0.048	0.226 ± 0.059
GGUGAGCAAUAUUACGUUCC	-1.39 ± 0.18	-0.666 ± 0.24
GCCGAGCAAUAUUACGUAAC	-2.89 ± 0.19	-0.977 ± 0.2
CACCAGCAAUAUUACGUGUG	-4.45 ± 0.17	-3.63 ± 0.19
CACGAGCAAUAUUACGCUUA	-2.83 ± 0.32	-0.611 ± 0.12
UAGCAGCAAUAUUACGUUCC	-3.78 ± 0.4	0.00366 ± 0.21
CCUCAGCAAUAUUACGUUUC	-3.04 ± 0.17	-2.44 ± 0.2
GUAGAGCAAUAUUACGUCCG	-2.26 ± 0.27	-2.49 ± 0.49
ACCAAGCAAUAUUACGCGUA	-1.11 ± 0.075	-0.487 ± 0.075
UAUCAGCAAUAUUACGAACU	-1.2 ± 0.14	0.231 ± 0.13
GGUAAGCAAUAUUACGACAU	-0.0747 ± 0.013	-0.0479 ± 0.033
CGGUAGCAAUAUUACGGGGC		-2.39 ± 0.34

Sequence	self-splicing fitness (ln) (30 °C)	self-splicing fitness (ln) (37 °C)
GUAUAGCAAUAUUACGCACC	-1.85 ± 0.17	-1.66 ± 0.27
CUCAAGCAAUAUUACGUAUU	-3.74 ± 0.19	-2.58 ± 0.21
UCAAAGCAAUAUUACGAAAU	-2.52 ± 0.2	-2.53 ± 0.27
AUGUAGCAAUAUUACGGCUU	0.168 ± 0.095	0.71 ± 0.12
AUCGAGCAAUAUUACGCAAA	-2.86 ± 0.16	-2.38 ± 0.26
GCGAAGCAAUAUUACGCGUG	-1.54 ± 0.12	-1.7 ± 0.13
UCCAAGCAAUAUUACGCGGC	-2.74 ± 0.23	-2.94 ± 0.23
UGCGAGCAAUAUUACGGUGC		-0.943 ± 0.2
AGAGAGCAAUAUUACGCGGU	-3.79 ± 0.43	-2.17 ± 0.46
UCUAAGCAAUAUUACGCGAG	-3.69 ± 0.25	-1.6 ± 0.17
ACAAAGCAAUAUUACGUCAA	-3.26 ± 0.25	-1.66 ± 0.14
CGAGAGCAAUAUUACGUACA	-1.64 ± 0.27	-1.71 ± 0.42
CCGAAGCAAUAUUACGUCAC	-3.29 ± 0.35	
AGGGAGCAAUAUUACGGUAC	-2.99 ± 0.31	-2.67 ± 0.3
UCACAGCAAUAUUACGGACA	-1.22 ± 0.099	-0.687 ± 0.099
UUUCAGCAAUAUUACGAAGC	-0.935 ± 0.36	
CAAAAGCAAUAUUACGUUGG	-2.47 ± 0.088	-1.48 ± 0.1
AACAAGCAAUAUUACGCGGU	-3.69 ± 0.14	-2.03 ± 0.11
UUGUAGCAAUAUUACGUAGG	-2.12 ± 0.15	-1.04 ± 0.23
